Test results reported in patent publication US20210330762A1.

Tests used:
Assay in all cases: cell-based or functional assay
[1] = target: wild-type microplasmin (WT µPlm), refolded from E. coli µPlg and activated with urokinase (human) (UniProt P00747)
[2] = target: µPlm mutant F587A (human) (UniProt P00747)
[3] = target: µPlm mutant F587D (human) (UniProt P00747)
[4] = target: µPlm mutant F587I (human) (UniProt P00747)
[5] = target: µPlm mutant F587M (human) (UniProt P00747)
[6] = target: µPlm mutant F587N (human) (UniProt P00747)
[7] = target: µPlm mutant F587Q (human) (UniProt P00747)
[8] = target: µPlm mutant F587R (human) (UniProt P00747)
[9] = target: µPlm mutant F587V (human) (UniProt P00747)

B1: α2-antiplasmin (α2-AP), purified from human serum (protein)
chain: NQEQVSPLTLLKLGNQEPGGQTALKSPPGVCSRDPTPEQTHRLARAMMAFTADLFSLVAQTSTCPNLILSPLSVALALSHLALGAQNHTLQRLQQVLHAGSGPCLPHLLSRLCQDLGPGAFRLAARMYLQKGFPIKEDFLEQSEQLFGAKPVSLTGKQEDDLANINQWVKEATEGKIQEFLSGLPEDTVLLLLNAIHFQGFWRNKFDPSLTQRDSFHLDEQFTVPVEMMQARTYPLRWFLLEQPEIQVAHFPFKNNMSFVVLVPTHFEWNVSQVLANLSWDTLHPPLVWERPTKVRLPKLYLKHQMDLVATLSQLGLQELFQAPDLRGISEQSLVVSGVQHQSTLELSEVGVEAAAATSIAMSRMSLSSFSVNRPFLFFIFEDTTGLPLFVGSVRNPNPSAPRELKEQQDSPGNKDFLQSLKGFPRGDKLFGPDLKLVPPMEEDYPQFGSPK
[1]
  IC50 (nM) of α2-AP inhibition of µPlm amidolytic activity (S-2403): 37.9 nM
  IC50 Fold Increase: 1 fold
[2]
  IC50 (nM) of α2-AP inhibition of µPlm amidolytic activity (S-2403): 150 nM
  IC50 Fold Increase: 4 fold
  activity remaining at 2 times concentration of α2-AP (% activity remaining): 50
[3]
  IC50 (nM) of α2-AP inhibition of µPlm amidolytic activity (S-2403): 106 nM
  IC50 Fold Increase: 2.8 fold
[4]
  IC50 (nM) of α2-AP inhibition of µPlm amidolytic activity (S-2403): 46.4 nM
  IC50 Fold Increase: 1.2 fold
[5]
  IC50 (nM) of α2-AP inhibition of µPlm amidolytic activity (S-2403): 77.6 nM
  IC50 Fold Increase: 2 fold
[6]
  IC50 (nM) of α2-AP inhibition of µPlm amidolytic activity (S-2403): 105 nM
  IC50 Fold Increase: 2.8 fold
[7]
  IC50 (nM) of α2-AP inhibition of µPlm amidolytic activity (S-2403): 63.2 nM
  IC50 Fold Increase: 1.7 fold
[8]
  IC50 (nM) of α2-AP inhibition of µPlm amidolytic activity (S-2403): 164 nM
  IC50 Fold Increase: 4.3 fold
[9]
  IC50 (nM) of α2-AP inhibition of µPlm amidolytic activity (S-2403): 65.2 nM
  IC50 Fold Increase: 1.7 fold
